# Reference: the domain aggregation screens of Martell et al. (2025)
# Experiment: soluble fraction after stress (log2 fold change); higher = more stays soluble; pooled small domains, quantitative proteomics
# Conditions: stress: pH 4
# Procedure, shortened: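 Values are log2 fold changes, and higher ones mean more of the domain stayed soluble. Each fold change reflects the soluble amount of a domain after acid stress and is taken as a measure of aggregation propensity. The stress was pH 4, applied to pooled custom libraries of small protein domains analysed by high-throughput quantitative proteomics.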
row,Sequence,soluble fraction (log2)
1,HMKTFSFEILADTVKKQRKAKGMTQAELSEATGINRSMIGQMENMTFKPSIEQLEALSQALDFNVIDLYTE,-0.767
2,HMKTGHLPVTVIIDGRIISDNLYKTGLSNNWLADQLRKNSIKSSEDVFFAYLNPERKFIYQLRSNS,-0.098
3,HMKTGNIVMVNLGWKGKYYSIKMFFPQVSKPSRKDVQDQIEKIYPGGKLYTFVVSNYEPGEPMLHA,-0.164
4,HMKTITLDEAQEIALAEVDGKVTRAVEETDDGRSYYEFDIITNDQKHELEVDASSGKITKNEIDEDYVPS,-0.0471
5,HMKTITVEDEQAGKRLDKALAELFPHYSRSALEKLIKEGQVLVNKSFVKSKYSLKLGDEISLQFEQL,0.0205
6,HMKTKILAPIPGSIMVVDVKVGDTVKVGDRLVQLEAMKMENNITSEKAGKITAVLVTAGQKVLQNEVMIEL,-0.52
7,HMKTLLSMNIKNLRKKKNMTLEELAEKVGTSKQTIQRYESGKISNIPSDKIELLAKYLDTTPAKLMGW,0.187
8,HMKTLNKRQQDIINLAREEGFVTVEHLSEYFKVTQQTIRRDLGYLSENLYLARTYGGAFFQS,-0.535
9,HMKTTKLEELDMQKEFILKNGKYGFGVYIGGKYIGLTDIGTVNSFKDSLQLPVVSLSDIDFKTFAEKF,-1.34
10,HMKTYEILFDILSRESDYISGEKLAQELGISRTSIWKAIQHLEKEGVHIESVKNKGYKLLSGDLLIAEKI,-0.343
11,HMKTYGGDNSLHKFDEHHSWMVAKYGPVVKQTINGETKWLKVKKDLTLAQVKKMKLEDVLLPKSQT,0.245
12,HMKVDRLVSMILILLEQQRVGAQELADRFEVSVRTIYRDMEAINQAGIPVRSTSGVGGGFEIM,-0.314
13,HMKVFREERLQLILEKLIHEKKVVVSDLVKYFNVSPSLIRMDLAELEKRDLILRTHGGAILPD,-0.0668
14,HMKVKEYKLVDWISTFTKNEGYGISQKAAMLLAEFLGDDLSRIANEIEKLKLLVEKGTTINDVHIEENI,-0.721
15,HMKVLFLESIEGSASMGEIKDVANGYARNFLFPNGFAVPATPKNLKNVEELQAKELEIQTERDNWAA,-0.713
16,HMKVSDLIGMLGRVTGELAPTGIVLVGNKTWTAISEDASVIASGEQVQVRSVAGLILTVSHQVD,-0.954
17,HMKVSVPDIMDNSSLRQAEAKLRALGFRVTEPEYISGEKDWVYSVTYKGRTLNAGDKVPHEALLTLHVGNG,≥ 0.43
18,HMKVTADVVVADRLKAWIISNNLKPGDRLPTEQKLSEELGVARHTLREGIKRLSQLGIIGSRTGSGMYVKN,0.158
19,HMKWIEILKSKDGNYALLQDEKDTQFVVASGYNPDAAEDQKWGHGSYFIYWNNKENKAEMLMNAIDLFRYR,-1.34
20,HMKYEFEFPYWSNKEAKHMIVTINYPNGTRATASIQDNDGSNPDYKRIMEEFGEEQIDANTEEGLKRR,-0.816
21,HMKYEGEDEYYASLVTEKIAAIGTVTEESEDAIKEARAAYDALTSAQKKLVTNYDVLDEAEK,0.302
22,HMKYGPSTVATLKVARLGEMGAFLDAETGDTSDDILLHKTQQTAPVKVGDEVEVFLYLDPKRRLTASMRV,-1.07
23,HMKYGPSTVAVLTVVRESEMGAFLDAETGRTNDDILLHKTQQTEPVHIGDQVKVFLYLDPKHRLTASMRVP,-1.24
24,HMKYNETEFKNLVAKLYNGEIEIVGKFTGLSYPILVKDKYGIMLSQKANLILNYRPTINIALNKTEYAMN,-0.4
25,HMKYSELLLEIILQSKEHPTAEQIFIEAKKRNPKIVQATVYNNLKNLLAQGRVIRISNPGQPDRYDNT,0.0505
26,HMKYVDYYATLGVARDADLATITKAYRKLARQTHPDLNQGADNEARFKAAAEAYATLKHPEKRAAYDELGQ,0.117
27,HMKYWTISDLYSKLEEDQVELGAFSEDSNKVTVLDRQGYEHVIKILSSDVPALTELFRKKKVRFAVAG,0.0959
28,HMKYYIYQGVGASGELTKIAEVTDQKTYTVTGLQAKTTYRFAVSSYNGLRESTKSNIVTVTT,0.22

row,Sequence,soluble fraction (log2)
1,HMLAAAVVVYATDKVNVRAEASETADVIGQLEAGSQTTRLEDKDGWSRIDYSNGTQGYMKSEFLSTEAPT,-0.622
2,HMLADEPTGALDSKTSVQIMALLTEIAQDRLVIMVTHNPELADEYATRIVNLRDGVISDDSDPFNP,-0.289
3,HMLAEEAFNKQAATAGYVYRDGSYHPAASVAQYDAMPRNYRTNTMAQELSRSQVESQLQQSQ,-0.104
4,HMLAGKTYEVQTESGGKWTLVASYNVKSQAIQQAQALLESHKYSGVKVIAESDRKGEEVIFNEQSEVT,0.104
5,HMLALKSGQVVVGTIIRRLDNTTAMLRIGNQLFETSFAKGLPKSNHILLRYDAMQGNRFIFTMVE,-0.063
6,HMLANLNKELQNDAALLKQKAQGNSNLLAKIQDVEQQMKQVNTSSASDEAKAKELQTLQRKLTAYKKALA,-0.0638
7,HMLAVSVDKDGKVYIQDSETAVDAVTAKLRAISGNNSEIRIFVRGDADVNYGRIMEIMGVINAAGFRKVAL,-0.78
8,HMLDEIAGQKVRVLEEINNSEGTGKVMYRGVEWMARSVDDAVMAKDSIVTVQSISGVKLMVT,-0.498
9,HMLDEKAVRQYLLNTLENSEIKMDRQAIDLFLRLTDLDLSKMMRELQKILLYGQEQEVITVKEIEQ,-1.17
10,HMLDGFEVGMTVMKKSGTEIGFTGWPSFADKDELPIIERIDTSDSTLLLKFKDMSWWIKASLVEPS,-0.396
11,HMLDLPEISARIMEVFETKDRATISELSKLTGTNINTIKKHLSSLVENNYLIKHGKTRGAWYTKST,-0.271
12,HMLDLVSIGKRIKAERQKNGLTQEALAERIEVSAHYVYELERGLKAMSVPILLRMSEVLHTSTDYLLF,-0.48
13,HMLDNHPQSKKIRALWLEMAAAGVVRDSSEQALALWVKRETGISALRWLSNEQASSVIEKLKKWQRRAAG,-0.0161
14,HMLDPKVFVGKAGINEGIAKLLLQAFDKADLVKVRFTAERDVMETQMQELARLTGSEVIGNVGRTATF,0.168
15,HMLEAMDSDEAAKVIEQIVNERADFVRSKGMGAIGPLMGPVMGALRGKVDGKQANELLTAAIKKLL,0.177
16,HMLEASVYTAEKSGDRLDAFLAEQAGITRSYAQKLIEGGQVTLGGVVPKKNYKLSAGEQVELILPEN,-0.00206
17,HMLEKVLDNHIHKLRLQHKISQQELADAIGVSRKTISTVETGRFTPSVVIALKIAAHFSVSVEQVFTL,-0.187
18,HMLEPEVLDLIGQVKSVHHFSVTQSHQLEKLVRHAHTLGFEIAELKSLLASSPNAKSLLSSLDQKLEPLRM,0.0896
19,HMLEQEQFESKLLKAINNINETQRIAFLMHRIDGKKYAEIASELNISVKAVEKRIHLALIELKKEIENF,-0.396
20,HMLEQISDINILSGYAKEVIAENPKTVSDYLSGKAAAFQALVGQVMKKTGGRGNPVIIQEILKRLIHKK,-0.182
21,HMLERKPVLVASRDLPALAVIGKDDLSVELLRTAPVGSYDRPEALLGKRVWVAVPAGSILSAATLEP,-0.0428
22,HMLERPLKLKSHYVSTIYEKVAVQYSEGEEKKSVMGTLIEVNQDTIVLDDRGTIIEIPFKSITRAKTVF,-0.364
23,HMLETLVYPNPTTDKILLSSPVDYHLFSLKGELVLEGRGSSIEVSQLSKGVYFLNTKTQTFKIIK,-0.156
24,HMLGARSLNEAVARNLPQILAKYQLIHIAGKNGFNPELQGRGYVQYEYVDTELKDLMALADIVVSR,-0.0512
25,HMLGERIKQIRKQKKMTQTDVATGIITKSMLSMIENGKATPSLPALQAIARRLQVTVEELML,0.0227
26,HMLGFELVGIRGNNPESTIIILERDDYRLVEQGQNINSSVIFSHIDGSRAYFFDGQTYTFLDI,-2.77
27,HMLGITEGSLVRVIRSPNFGKIGTVAELPAELRMMESETMVRIAIVEIEGTNFEIPRSNLEVLET,-1.28
